B1: FEM1B (parent)
chain: TLAALLLNRSESDIRYLLGYVSQQ
B2: C22orf15 (parent)
chain: PRGRAHLLPNPYQQDFLGLPEELR
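Further: lentivirally expressed fusions sorted by FACS into six bins by GFP to DsRed ratio, PSI derived from sequencing read proportions per bin multiplied by bin number.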

In the first data set the parent is B1. As to the kind of experiment: protein stability index of a GFP-peptide fusion (GPS, HEK-293T) (PSI 1-6); higher = more stable. As to conditions: c terminus: a fixed tail appended.
As for TLAALALNRSESDIRYLLGYVSQQ [L6A], the protein stability index is 2.12. TLAALDLNRSESDIRYLLGYVSQQ [L6D]: the protein stability index worked out at 2.5. With TLAALELNRSESDIRYLLGYVSQQ [L6E], the protein stability index came to 1.7.

As to TLAALCLNRSESDIRYLLGYVSQQ [L6C], the protein stability index is 1.21.

With TLAKLLLNRSESDIRYLLGYVSQQ [A4K], the protein stability index came to 2.59. The same measure, in the same setting: the figure for TLANLLLNRSESDIRYLLGYVSQQ [A4N] is 2.53. The same measure, in the same setting: for TLACLLLNRSESDIRYLLGYVSQQ [A4C] the value was 2.3; for TLATLLLNRSESDIRYLLGYVSQQ [A4T], 2.35. Same read-out and setting: the figure for TLARLLLNRSESDIRYLLGYVSQQ [A4R] is 3.48. Consider TLAPLLLNRSESDIRYLLGYVSQQ [A4P], for which the protein stability index worked out at 2.09. The same measure, in the same setting: for TLAQLLLNRSESDIRYLLGYVSQQ [A4Q] the value was 2.05; for TLASLLLNRSESDIRYLLGYVSQQ [A4S], 3.29; for TLAELLLNRSESDIRYLLGYVSQQ [A4E], 2.94. Same read-out and setting: for TLAMLLLNRSESDIRYLLGYVSQQ [A4M] the value was 1.5; for TLAVLLLNRSESDIRYLLGYVSQQ [A4V], 2.42. On the same count and under the same terms, for TLAWLLLNRSESDIRYLLGYVSQQ [A4W] the value was 2.28; for TLAHLLLNRSESDIRYLLGYVSQQ [A4H], 2.97; for TLAILLLNRSESDIRYLLGYVSQQ [A4I], 2.37.

With TLADLLLNRSESDIRYLLGYVSQQ [A4D], the protein stability index was found to be 2.37. Regarding TLAFLLLNRSESDIRYLLGYVSQQ [A4F], the protein stability index was 3.05. Consider TLAYLLLNRSESDIRYLLGYVSQQ [A4Y], for which the protein stability index was found to be 3.38. Same read-out and setting: for TLAGLLLNRSESDIRYLLGYVSQQ [A4G] the value was 1.68.

For the variant TLRALLLNRSESDIRYLLGYVSQQ [A3R], the protein stability index was 2.25. The same measure, in the same setting: for TLDALLLNRSESDIRYLLGYVSQQ [A3D] the value was 2; for TLEALLLNRSESDIRYLLGYVSQQ [A3E], 2.92.

Take TLGALLLNRSESDIRYLLGYVSQQ [A3G]: the protein stability index was 2.15.

TLCALLLNRSESDIRYLLGYVSQQ [A3C]: the protein stability index came to 2.17. The same measure, in the same setting: for TLVALLLNRSESDIRYLLGYVSQQ [A3V] the value was 3.73; for TLHALLLNRSESDIRYLLGYVSQQ [A3H], 2.12; for TLMALLLNRSESDIRYLLGYVSQQ [A3M], 2.35. On the same count and under the same terms, for TLNALLLNRSESDIRYLLGYVSQQ [A3N] the value was 1.7; for TLWALLLNRSESDIRYLLGYVSQQ [A3W], 2.38; for TLIALLLNRSESDIRYLLGYVSQQ [A3I], 2.65. Same read-out and setting: for TLLALLLNRSESDIRYLLGYVSQQ [A3L] the value was 2.64; for TLQALLLNRSESDIRYLLGYVSQQ [A3Q], 2.31. On to TLKALLLNRSESDIRYLLGYVSQQ [A3K], for which the protein stability index was determined as 1.18. Consider TLPALLLNRSESDIRYLLGYVSQQ [A3P], for which the protein stability index was found to be 2.08.

Regarding TLFALLLNRSESDIRYLLGYVSQQ [A3F], the protein stability index was determined as 3.58.

Consider TLTALLLNRSESDIRYLLGYVSQQ [A3T], for which the protein stability index is 2.18. Same read-out and setting: the figure for TFAALLLNRSESDIRYLLGYVSQQ [L2F] is 2.56; for TCAALLLNRSESDIRYLLGYVSQQ [L2C] it is 3.06. On to TVAALLLNRSESDIRYLLGYVSQQ [L2V], for which the protein stability index was 2.68. The same measure, in the same setting: for TPAALLLNRSESDIRYLLGYVSQQ [L2P] the value was 1.93; for TAAALLLNRSESDIRYLLGYVSQQ [L2A], 1.7.

As for TYAALLLNRSESDIRYLLGYVSQQ [L2Y], the protein stability index amounted to 2.2. For the variant TGAALLLNRSESDIRYLLGYVSQQ [L2G], the protein stability index turned out to be 2.11.

Turning to TDAALLLNRSESDIRYLLGYVSQQ [L2D], the protein stability index is 2.1.

Turning to TWAALLLNRSESDIRYLLGYVSQQ [L2W], the protein stability index was found to be 2.87. On the same count and under the same terms, the figure for TKAALLLNRSESDIRYLLGYVSQQ [L2K] is 1.64. Still for that read-out and setting: the figure for TQAALLLNRSESDIRYLLGYVSQQ [L2Q] is 2.44; for TMAALLLNRSESDIRYLLGYVSQQ [L2M] it is 2.24; for TSAALLLNRSESDIRYLLGYVSQQ [L2S] it is 1.57.

Regarding TEAALLLNRSESDIRYLLGYVSQQ [L2E], the protein stability index was 2.01. The same measure, in the same setting: for TNAALLLNRSESDIRYLLGYVSQQ [L2N] the value was 1.89; for TTAALLLNRSESDIRYLLGYVSQQ [L2T], 1.77; for THAALLLNRSESDIRYLLGYVSQQ [L2H], 1.43. With TRAALLLNRSESDIRYLLGYVSQQ [L2R], the protein stability index is 1.84. The same measure, in the same setting: for TLAAALLNRSESDIRYLLGYVSQQ [L5A] the value was 2.03; for TLAARLLNRSESDIRYLLGYVSQQ [L5R], 3.37; for TLAAHLLNRSESDIRYLLGYVSQQ [L5H], 2.62. The same measure, in the same setting: the figure for TLAAYLLNRSESDIRYLLGYVSQQ [L5Y] is 3.74; for TLAAGLLNRSESDIRYLLGYVSQQ [L5G] it is 1.12; for TLAAELLNRSESDIRYLLGYVSQQ [L5E] it is 2.14. On the same count and under the same terms, for TLAADLLNRSESDIRYLLGYVSQQ [L5D] the value was 2.45; for TLAACLLNRSESDIRYLLGYVSQQ [L5C], 2.4; for TLAASLLNRSESDIRYLLGYVSQQ [L5S], 2.6. Consider TLAATLLNRSESDIRYLLGYVSQQ [L5T], for which the protein stability index is 2.71.

Consider TLAAILLNRSESDIRYLLGYVSQQ [L5I], for which the protein stability index was 3.24.

Turning to TLAAVLLNRSESDIRYLLGYVSQQ [L5V], the protein stability index was 3.12. On the same count and under the same terms, for TLAAKLLNRSESDIRYLLGYVSQQ [L5K] the value was 1.44. The same measure, in the same setting: for TLAAWLLNRSESDIRYLLGYVSQQ [L5W] the value was 2.25. On the same count and under the same terms, for TLAAQLLNRSESDIRYLLGYVSQQ [L5Q] the value was 3.07; for TLAAMLLNRSESDIRYLLGYVSQQ [L5M], 3.24; for TLAAPLLNRSESDIRYLLGYVSQQ [L5P], 1.79. In the case of TLAAFLLNRSESDIRYLLGYVSQQ [L5F], the protein stability index was found to be 5.25. Take TLAANLLNRSESDIRYLLGYVSQQ [L5N]: the protein stability index was 1.76. The same measure, in the same setting: the figure for SLAALLLNRSESDIRYLLGYVSQQ [T1S] is 2.98. On to PLAALLLNRSESDIRYLLGYVSQQ [T1P], for which the protein stability index was determined as 2.1. Still for that read-out and setting: the figure for NLAALLLNRSESDIRYLLGYVSQQ [T1N] is 2.8. Still for that read-out and setting: the figure for ILAALLLNRSESDIRYLLGYVSQQ [T1I] is 3.74. On the same count and under the same terms, the figure for DLAALLLNRSESDIRYLLGYVSQQ [T1D] is 1.66; for GLAALLLNRSESDIRYLLGYVSQQ [T1G] it is 2.61. In the case of ELAALLLNRSESDIRYLLGYVSQQ [T1E], the protein stability index is 2.21.

With LLAALLLNRSESDIRYLLGYVSQQ [T1L], the protein stability index was 1.72. On to MLAALLLNRSESDIRYLLGYVSQQ [T1M], for which the protein stability index stood at 3.36.

Take KLAALLLNRSESDIRYLLGYVSQQ [T1K]: the protein stability index came out at 2.89. The same measure, in the same setting: the figure for WLAALLLNRSESDIRYLLGYVSQQ [T1W] is 1.93; for CLAALLLNRSESDIRYLLGYVSQQ [T1C] it is 3.15. Same read-out and setting: the figure for QLAALLLNRSESDIRYLLGYVSQQ [T1Q] is 1.85; for YLAALLLNRSESDIRYLLGYVSQQ [T1Y] it is 3.91; for ALAALLLNRSESDIRYLLGYVSQQ [T1A] it is 2.5.

In a further data set the parent is B2. Described as above. As to conditions: c terminus: a fixed tail appended.
Turning to PRGRAHLLPNPYQQDFLGLPEELY [R24Y], the protein stability index is 3.05.

Consider PRGRAHLLPNPYQQDFLGLPEELW [R24W], for which the protein stability index is 2.11. Still for that read-out and setting: for PRGRAHLLPNPYQQDFLGLPEELV [R24V] the value was 3.63.

For the origin of these results see the supplement of paper PMC10567573.
